The text below walks through data of patent publication US9505841B2, “Use of an anti-Ang2 antibody” (Samsung Electronics Co., Ltd., priority 2013, dated 2016).

The test system of assay [1] is HL-60 cells adhered to HUVEC cells. As to the kind of experiment: Binding between inflammatory cells HL-60 and HUVEC induced by TNF-a. The format is cell-based, human. The note with it: 1 ng/ml TNF-a; 0.2 ug/ml Ang1 or 0.1 ug/ml Ang2 + 0.5 ug/ml 10D6. The procedure:
Meanwhile, if the expression of inflammatory adhesion substances (ICAM-1, E-selectin, etc.) of vascular endothelial cells is increased, binding between the inflammatory cells and the vascular endothelial cells are accelerated and inflammatory response is thus induced. To confirm this, an experiment for measuring binding between inflammatory cells HL-60 (ATCC) and HUVEC was conducted.
HUVEC cells (4×10^5) were cultured in a 24-mutiwell plate and treated with 0.1 ug/ml of Ang2 alone or 0.1 ug/ml of Ang2 together with 0.5 ug/ml of antibody 10D6, and a group in which 0.2 ug/ml of Ang1, and 0.1 ug/ml of Ang2 (R&D systems) and 0.5 ug/ml of Regeneron Co. antibody (RG antibody) were co-treated was included as a control group. As above, the HUVEC cells were treated with Angiopoietin and antibody and after 30-min. pre-incubation, they were treated with 1 ng/ml of TNF-a (eBioscience) to induce inflammatory response and incubated for 2 hours and 30 min.
After the HUVEC cells were washed with complete media (Lonza), HL-60 cells dyed with Calcein-AM (BD bioscience) solution were added at the amount of 2.5×10^5 cells to each well and incubated for 1 hour. […] The obtained lysate was transported to a 96-well plate, and fluorescence strengths derived from the HL-60 cells were measured at 485/535 nm (Ex/Em) setting using an Envision 2104 multilabel Reader (Perkin Elmer).

Assay [2] concerns Tie2 receptor. As to the kind of experiment: Internalization of Tie2 receptor in HUVEC (confocal microscopy). The format is cell-based, human. As to the method: HUVEC (ATCC) cells (1×10^6) were cultured in m-slide 8 wells (#80826, ibidi) for 24 hours and then subjected to serum starvation in serum-free EBM-2 media (Lonza) for 3 hours. 200 ng/ml of Ang1 (R&D systems) or 2ug/ml of Ang2 (R&D systems) and 10 ug/ml of antibody 10D6 were each diluted in EBM-2 media and then, the cells were treated with them and incubated according to time specified in the picture. The cells fixed with 4% formaldehyde (Sigma) was dyed first with an anti-Tie2 antibody (R&D systems) and then subjected to a secondary dye with an anti-goat Alexa 555 antibody (red, Life technology) and an anti-mouse Alexa 488 antibody (green, Life technology). The dyed cells were treated with Vectashield mounting medium with DAPI (Vector labs) and then observed using a confocal laser scanning microscopy (Carl Zeiss).

Assay [3] deals with tumor blood vessels. Briefly: Lectin perfusion assay in LLC tumors. Format: in vivo, mouse. The note with it: 10 mg/kg i.p., five administrations, compared to Fc- or 4H10-treated group. The procedure:
To see the functions of tumor blood vessels treated with antibody 10D6, perfusion level of the blood vessel was examined by Lectin perfusion assay. Referring to the method described in Example 14, LLC tumor cells were subcutaneously injected into mice. When the size of tumors reached 50˜100 mm^3, anti-Ang2 antibody 10D6 was injected at the concentration of 10 mg/kg via an intraperitoneal injection three times a week and the size of the tumors was measured. For comparison, the same experiment was performed to a control group treated with Fc of IgG1 and a comparative group treated with antibody 4H10 (refer to Example 3).
After administering the antibody five-times, the mice were injected with FITC-Lectin (Vector laboratory) via tail vein, and after 20 minutes, subjected to perfusion fixation. Tumor frozen sections were obtained and immunostained using hamster anti-CD31 antibody (1:200, Millipore). Images were obtained using LSM5 confocal microscope (Zeiss), and Lectin+ area/CD31+ area was quantified using ImageJ software (http://rsb.info.nih.gov/ij).

Assay [4] relates to mutant Ang2 protein. As to the kind of experiment: Epitope ELISA with alanine-mutated Ang2 proteins. The format is binding, human. Conditions: A449 substituted with alanine. As to the method: To verify the epitope (or specific binding site) of the anti-Ang2 antibody prepared in Example 2, an ELISA was performed using a recombinant protein where a receptor binding domain (RBD) of Ang2 protein in the form of being tagged with Flag was mutated by artificial means.
Each well of a 96-well MaxiSorp™ flat-bottom plate (Nunc) was coated with 50 ul (microliter) of 1000 nM antibody. Then, the plate was washed five times with 0.05% (v/v) Tween-20-containing PBS (PBST) and blocked with 1% (v/v) BSA-containing PBS at a room temperature for 2 hours. 250 ng of each mutant Ang2 protein obtained by substituting S417, Q418, P419, N421, 1434, D448, A449, P452, Y460, N467, K468, or F469 residue of Ang2 protein tagged with a FLAG sequence (DYKDDDDK, Sigma) at its N-terminal with alanine was added to each well of the plate, which was then allowed to react at a room temperature for 2 hours. […]
Finally, 50 ul of TMB substrates (Cell signaling) was added to each well of the plate to induce color development at a room temperature for 3 min. and the reaction was ceased by the addition of 50 ul of Stop solution (Cell signaling) and then, OD450 values were measured on a plate reader (Molecular Devices). […]
(In general: ELISA stands for enzyme-linked immunosorbent assay.)

B1: 10D6: mouse anti-Ang2 monoclonal antibody from hybridoma KCLRF-BP-00295; heavy chain variable region SEQ ID NO: 7, light chain variable region SEQ ID NO: 9 (antibody, V domains shown)
VH: DVQLQESGPGLVKPSQSLSLTCTVTGYSITSDYAWNWIRQFPGNKLEWMGYINYSGNTDYNPSLKSRSSITRDTSKNQFFLQLNSVTTGDTATYYCARGNFEGAMDYWGQGTSVTVSS
VL: SIVMTQTPKFLLVSAGDRVTITCKASQSVSNDVAWYQQKPGQSPKLLIYYASNRYPGVPDRFTGSGYGTDFTFTISTVQAEDLAVYFCQQDYSSPWTFGGGTKLEIK
modifications: Synthetic (Heavy chain variable region of an anti-Ang2 antibody); Synthetic (Light chain variable region of anti-Ang2 antibody)
As for B1, in assay [1], the “binding between HUVEC cells and HL-60 cells induced by TNF-a” value is “remarkably suppressed”. For the same molecule, in assay [2] (2 ug/ml Ang2 and 10 ug/ml antibody), the “time from which internalization of the Tie2 receptor started” value came out at 30 min. Further, the “location of internalized Tie2 and antibody” value in assay [2] (anti-EEA1 antibody dye) is “located in an early endosome”. In assay [3], the “percentage of Lectin+ area in CD31+ area” value is “increased” and the “perfusion function of tumor blood vessels” value is given as “enhanced”. Besides, the “binding affinity (%) with mutant Ang2 against the binding affinity with the native Ang2, 449” value in assay [4] is listed as 97.86%.
